Laboratory results taken from patent publication US20230304022.

Legend:
Experiment in all cases: cell_activity
[1] = tested on: TALEN A1 NT-αN (synthetic); conditions: HeLa; pair A1/A2
[2] = tested on: Gin-AvrXa7 Δ128 (synthetic); conditions: E. coli
[3] = tested on: GinC4 zinc finger recombinase (synthetic); conditions: HEK293T; 107-fold in p263
[4] = tested on: Gin-Avr15Δ120 (synthetic repeats) (synthetic); conditions: for activity (fold luciferase reduction): HEK293T
[5] = tested on: TALEN C2 NT-αN (synthetic); conditions: HeLa; pair C1/C2
[6] = tested on: GinC4 + Gin-Avr15Δ120 heterodimer (synthetic); conditions: HEK293T; ZFR-TALER heterodimer
[7] = tested on: Gin-Pth15Δ120 (synthetic repeats) (synthetic); conditions: E. coli
[8] = tested on: TALEN A2 NT-αN (synthetic); conditions: HeLa; pair A1/A2

CCTGCAGCTCTCATTTT (double strand) [TALEN A1 half-site]
activity (fold over NT-T) [1]: 9

TTAGCACCTGGTTGGAGGGGGTTTATAGCTTCATCCAAAACCGGGGTTTACAGGGTTCCTATAAACCCCCTCCAACCAGGTGCTAA (double strand) [Avr32GG]
activity (fold less than cognate) [2]: > 100

GCGGGAGGCGTGTCCAAAACCATGGTTTACAG (double strand) [C4-20G (C4 zinc finger site flanking Gin core)]
activity (fold luciferase reduction) [3]: > 80

TTAGCACCTGGTTGGAGGGGGTTTATAGCTTCAGCTTCATCCAAAACCATGGTTTACAGGGTTCCGGTTCCTATAAACCCCCTCCAACCAGGTGCTAA (double strand) [Avr44G]
activity (fold luciferase reduction) [4]: 20

CAGAATTGATACTGACT (double strand) [TALEN C2 half-site]
activity (fold over NT-T) [5]: 2

GCGGGAGGCGTGTCCAAAACCATGGTTTACAGGGTTCCTATAAACCCCCTCCAACCAGGTGCTAA (double strand) [Avr-G-ZF hybrid site]
activity (fold luciferase reduction) [6]: > 140

TTAGCACCTGGTTGGAGGGGGTTTATAGCTTCATCCAAAACCATGGTTTACAGGGTTCCTATAAACCCCCTCCAACCAGGTGCTAA (double strand) [Avr32G]
activity (fold luciferase reduction) [4]: 6
activity (fold less than cognate site) [7]: > 600

GTGGTGTACAGTAGGGGGAGATGCAGCTGCTTCCAAAACCATGGTTTACAGGGTGGTTGCATCTCCCCCTACTGTACACCAC (double strand) [PthXo1-32G]
activity (fold less than cognate site) ([4]; E. coli): > 600
activity (fold less than cognate) ([2]; non-cognate TALE site): > 100
activity (fold over non-cognate site) [7]: > 600

TTAGCACCTGGTTGGAGGGGGTTTATAGCTTCACGAAATATTATAAATTATCAGGTTCCTATAAACCCCCTCCAACCAGGTGCTAA (double strand) [Avr32T]
activity (fold less than cognate core) ([4]; E. coli): > 1000
activity (fold less than cognate) [2]: > 100

ATTCTTCCAGAATTGA (double strand) [TALEN A2 half-site]
activity (fold over NT-T) [8]: 9
